Assays:
[1] = test system: activated integrin αvβ3; assay: Flow cytometry, scFv binding to MDA-MB 435 variants and patient metastatic breast cancer cells; design: species or system human
Description: FIGS. 1A, 1B, 1C. Patient derived scFvs Bc-12 and Bc-15 recognize tumor cell integrin αvβ3 in a cation and activation dependent manner. Flow cytometric analyses in TBS with or without 1 mM Ca^2+, 1 mM Mg^2+, or 0.2 mM Mn^2+ as indicated. Binding of soluble scFv detected after incubation with anti-Flag M2 murine mAb followed by FITC-anti mouse F(ab′)2. (A) scFv binding to human melanoma cells (M21: αvβ3 plus other αv integrins) (M21-LIIb: αIIbβ3, no αv integrins) or lung adenocarcinoma cells (UCLA-P3: αv integrins, no β3 integrin). (B) scFv binding to M21 melanoma cells. (C) scFv binding to variants of MDA-MB 435 human breast cancer cells that lack (β^3−) or express αvβ3 either in a non-activated (β3WT, ParentCo) or activated form (β3D723R, Bone, Lung, and BMS metastatic cancer cells isolated from breast cancer patient blood).
FIGS. 2A, 2B, 2C, 2D. Translation of scFv DNA sequence analyses. (A) Consensus amino acid sequence (SEQ ID NO: 9) of Bc-12 (SEQ ID NO: 7) and Bc-15 (SEQ ID NO: 8) (specific for activated αvβ3) compared to Bc-20 (specific for αv) (SEQ ID NO: 10). (B) scFv binding to BMS human breast cancer cells by flow cytometry, indicating loss of Bc-12 and Bc-15 binding when CDR-H3 RGD is mutated to RGE (Mut-12 and Mut-15). […] (C) cDNA sequences for scFv Bc-12 (SEQ ID NO: 1) and scFv Bc-15 (SEQ ID NO: 3). The cDNA encoding scFv Bc-12 has an ATCC accession number PTA-6303, date of deposit: Nov. 12, 2004. The cDNA encoding scFv Bc-15 has an ATCC accession number PTA-6304, date of deposit: Nov. 12, 2004. (D) cDNA sequences for scFv Mut-12 (SEQ ID NO: 5) and scFv Mut-15 (SEQ ID NO: 6). scFv Mut-12 is the RGE containing mutant version of scFv Bc-12. scFv Mut-15 is the RGE containing mutant version of scFv Bc-15.
Flow cytometry. scFv binding to human tumor cells was analyzed by flow cytometry, initially with cloned scFv phage and then with purified scFv protein. Per sample, 2×10^5 tumor cells were blocked with goat serum and incubated either with scFv phage (2-5×10^10) (1 h at RT) followed by mouse anti-M13 mAb (Serotec) (30 min on ice) and goat FITC-anti mouse (Pierce) (30 min on ice), or with purified scFv (1.25 to 40 μg/ml, routinely 10 to 15 μg/ml) (45 min on ice), followed by mouse anti-FLAG mAb M2 (Sigma) (30 min on ice) and goat FITC-anti mouse. Binding/washing buffer was TBS with or without divalent cations (1 mM Ca^2+, 1 mM Mg^2+, 0.2 mM Mn^2+). Alternatively, tumor cells were washed in 10 ml of plasma (prepared freshly from human blood anticoagulated with 50 nM D-Phe-D-Pro-D-arginyl chloromethyl ketone, PPACK, Felding-Habermann et al., J. Biol. Chem. 271: 5892-5900, 1996), resuspended in plasma and then incubated sequentially, without washing, with purified scFv (45 min on ice), followed by anti-FLAG M2 (30 min on ice) and FITC-anti mouse (30 min on ice). All samples were counter stained with propidium iodide (PI) and analyzed on a Becton-Dickinson FACScan, with live gate set to exclude PI positive cells.
To test this further, the effects of cation combinations on Bc-12 and Bc-15 binding were examined. […] Smith, Methods Cell Biol. 69: 247-259, 2002; Hughes et al., J. Biol. Chem. 271: 6571-6574, 1996. To confirm that scFv Bc-12 and Bc-15 selectively recognize αvβ3 in its activated form, binding of these antibodies to in vitro generated and in vivo selected variants of the MDA-MB 435 breast cancer cell model was tested. […] In contrast, Bc-12 and Bc-15 were able to bind an MDA-MB 435 variant expressing constitutively activated mutant αvβ3D723R, without exogenous stimulation with Mn^2+. […] Importantly, scFvs Bc-12 and Bc-15 recognized in vivo selected MDA-MB 435 variants from bone and lung metastases, as well as metastatic cells isolated from breast cancer patient blood samples (FIG. 1C). These cells express αvβ3 in a constitutively activated form. Felding-Habermann et al., Proc. Natl. Acad. Sci. U.S.A 98: 1853-1858, 2001; Rolli et al., Proc. Natl. Acad. Sci. U.S.A 100: 9482-9487, 2003.

[2] = target: T1, tumor cell integrin αvβ3 (Homo sapiens, UniProt P05106+P06756); assay: Flow cytometry, scFv binding to BMS cells in fresh human plasma; conditions: saturable binding
T1 construct: Primary metastatic cells from blood samples of stage IV breast cancer patients (BCM1, BCM2, BMS) were isolated; endogenous in cells; host or cells: BMS cells (primary metastatic breast cancer cells from patient blood)
T1 sequence (P06756 31-889 limits assumed): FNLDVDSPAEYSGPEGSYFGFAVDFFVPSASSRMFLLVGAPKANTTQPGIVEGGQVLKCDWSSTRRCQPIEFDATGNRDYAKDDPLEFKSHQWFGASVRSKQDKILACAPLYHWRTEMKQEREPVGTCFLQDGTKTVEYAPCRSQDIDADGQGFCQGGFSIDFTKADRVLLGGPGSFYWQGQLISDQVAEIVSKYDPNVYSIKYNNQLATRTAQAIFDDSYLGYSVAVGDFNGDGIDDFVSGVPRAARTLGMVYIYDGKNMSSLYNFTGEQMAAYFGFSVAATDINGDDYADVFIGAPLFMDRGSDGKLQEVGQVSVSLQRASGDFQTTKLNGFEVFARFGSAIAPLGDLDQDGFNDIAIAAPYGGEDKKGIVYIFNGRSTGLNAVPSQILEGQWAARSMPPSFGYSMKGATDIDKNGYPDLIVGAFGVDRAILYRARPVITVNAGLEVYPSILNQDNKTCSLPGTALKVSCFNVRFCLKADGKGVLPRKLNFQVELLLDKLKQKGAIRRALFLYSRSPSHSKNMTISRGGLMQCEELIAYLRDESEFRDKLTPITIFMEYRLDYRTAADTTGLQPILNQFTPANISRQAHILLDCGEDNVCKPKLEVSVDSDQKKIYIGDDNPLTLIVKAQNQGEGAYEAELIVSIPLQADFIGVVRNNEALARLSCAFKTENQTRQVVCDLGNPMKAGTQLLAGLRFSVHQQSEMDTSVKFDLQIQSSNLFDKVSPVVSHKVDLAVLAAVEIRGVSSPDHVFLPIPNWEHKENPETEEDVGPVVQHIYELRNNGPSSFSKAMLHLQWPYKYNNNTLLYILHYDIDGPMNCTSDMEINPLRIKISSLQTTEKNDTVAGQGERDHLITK
T1 sequence (P06756 891-1048 partner limits assumed): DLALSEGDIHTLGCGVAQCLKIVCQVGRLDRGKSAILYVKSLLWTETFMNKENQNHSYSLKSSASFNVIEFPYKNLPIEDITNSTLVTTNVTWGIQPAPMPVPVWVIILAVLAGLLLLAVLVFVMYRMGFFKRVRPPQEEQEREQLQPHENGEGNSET
T1 sequence (P05106 27-788): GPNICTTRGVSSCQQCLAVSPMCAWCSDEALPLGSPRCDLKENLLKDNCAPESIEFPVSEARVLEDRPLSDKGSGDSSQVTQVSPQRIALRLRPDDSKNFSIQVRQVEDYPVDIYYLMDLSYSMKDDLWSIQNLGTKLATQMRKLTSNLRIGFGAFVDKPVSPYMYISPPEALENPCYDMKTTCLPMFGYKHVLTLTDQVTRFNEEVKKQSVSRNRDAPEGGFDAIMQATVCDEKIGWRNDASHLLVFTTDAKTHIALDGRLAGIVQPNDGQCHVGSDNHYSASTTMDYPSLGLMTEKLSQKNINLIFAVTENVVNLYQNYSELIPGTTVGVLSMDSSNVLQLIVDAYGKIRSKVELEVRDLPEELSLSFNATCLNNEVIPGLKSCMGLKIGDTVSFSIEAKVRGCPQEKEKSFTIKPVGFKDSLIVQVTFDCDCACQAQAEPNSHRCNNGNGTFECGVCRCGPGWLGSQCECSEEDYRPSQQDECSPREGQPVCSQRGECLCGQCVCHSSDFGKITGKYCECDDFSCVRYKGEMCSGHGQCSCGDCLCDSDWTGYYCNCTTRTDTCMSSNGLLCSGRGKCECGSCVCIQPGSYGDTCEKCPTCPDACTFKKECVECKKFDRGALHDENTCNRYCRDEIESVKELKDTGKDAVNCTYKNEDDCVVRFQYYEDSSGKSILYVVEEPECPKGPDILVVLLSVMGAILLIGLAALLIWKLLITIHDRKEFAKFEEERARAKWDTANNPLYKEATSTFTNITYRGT
Description: FIG. 4. Patient derived ligand mimetic scFvs Bc-12 and Bc-15 against activated αvβ3 are internalized and bind to breast cancer cells in human plasma and affect breast cancer survival. Flow cytometric analysis with human metastatic breast cancer cells (BMS) isolated from a patient blood sample. All binding and washing steps were done in fresh human plasma prepared from blood anticoagulated with 50 nM PPACK.
Flow cytometry. scFv binding to human tumor cells was analyzed by flow cytometry, initially with cloned scFv phage and then with purified scFv protein. Per sample, 2×10^5 tumor cells were blocked with goat serum and incubated either with scFv phage (2-5×10^10) (1 h at RT) followed by mouse anti-M13 mAb (Serotec) (30 min on ice) and goat FITC-anti mouse (Pierce) (30 min on ice), or with purified scFv (1.25 to 40 μg/ml, routinely 10 to 15 μg/ml) (45 min on ice), followed by mouse anti-FLAG mAb M2 (Sigma) (30 min on ice) and goat FITC-anti mouse. […] All samples were counter stained with propidium iodide (PI) and analyzed on a Becton-Dickinson FACScan, with live gate set to exclude PI positive cells.
Antimetastatic activity of scFv antibodies against activated αvβ3 inhibit hematogenous breast cancer metastasis in vivo. […] The antibodies bound the cells in a saturable manner with half maximal binding measured at 40 nM scFv (1 μg/ml) (FIG. 4).

B1: Bc-12: patient derived human scFv antibody against activated αvβ3 with RGD motif in CDR-H3; cDNA ATCC PTA-6303 (protein)
scFv: MAQVQLVQSGAEVKKPGASVKVSCKASGYTFSNYGITWVRQAPGQGLEWMGWINNGNTHYAQKFQGRVTMTTDTSTSTAYMELRSLRSDDTAVYYCARDPRGDDEPYWGQGTLVTVSSGGGGSGGGGSGGGGSEIVLTQSPLSLPVTLGQPASISCRSSQNLVYSDGNTYLSWFQQRPGQSPRRLIYKVSNRDSGVPDRFSGSGSGTDFTLKISRVEAEDIGVYYCMQGTHWPPRTFGQGTKVEIKRGLGGLVDYKDDDDK
[1]; Mn^2+ added
  binding to MDA-MB 435 variant expressing αvβ3D723R with Mn2+: further enhanced
[1]; constitutively activated mutant, without Mn^2+
  binding to MDA-MB 435 variant expressing αvβ3D723R: able to bind
[1]; β3− variant
  binding to β3-negative MDA-MB 435 cells: failed to bind
[2]
  half maximal binding: 1 µg/mL
[2]; read-out: half maximal binding
  EC50: 40 nM
